Laboratory results reported in article doi:10.1101/212837 (bioRxiv, 2017).

Biological target: human acid α-glucosidase (GAA), 123-200 fragment of the protease-treated enzyme (human, UniProt P10253 123-200)
Assay: crystal structure

B1: human acid α-glucosidase (GAA), 80-115 fragment of the protease-treated enzyme (domain or fragment)
chain: not shown
B1: binds.
